Reference: patent US20100298213A1, “Pharmaceutically Active Insulin Receptor-Modulating Molecules” (Novo Nordisk A/S, priority 2004, published 2010)
Square brackets hold non-standard residues; d marks the D form. Ends that are not written are not given here. Dip = N[C@H](C(=O)O)C(c1ccccc1)c1ccccc1; Orn = NCCC[C@H](N)C(=O)O; Aib = CC(C)(N)C(=O)O

Target: human IR (HIR) (Homo sapiens, UniProt P06213)
Experiment: Human IR affinity (Kd)
Assay type: binding
Conditions: Kd value expressed relative to that of human insulin in the same assay

Sequence of human IR (HIR) (P06213 28-758 limits assumed): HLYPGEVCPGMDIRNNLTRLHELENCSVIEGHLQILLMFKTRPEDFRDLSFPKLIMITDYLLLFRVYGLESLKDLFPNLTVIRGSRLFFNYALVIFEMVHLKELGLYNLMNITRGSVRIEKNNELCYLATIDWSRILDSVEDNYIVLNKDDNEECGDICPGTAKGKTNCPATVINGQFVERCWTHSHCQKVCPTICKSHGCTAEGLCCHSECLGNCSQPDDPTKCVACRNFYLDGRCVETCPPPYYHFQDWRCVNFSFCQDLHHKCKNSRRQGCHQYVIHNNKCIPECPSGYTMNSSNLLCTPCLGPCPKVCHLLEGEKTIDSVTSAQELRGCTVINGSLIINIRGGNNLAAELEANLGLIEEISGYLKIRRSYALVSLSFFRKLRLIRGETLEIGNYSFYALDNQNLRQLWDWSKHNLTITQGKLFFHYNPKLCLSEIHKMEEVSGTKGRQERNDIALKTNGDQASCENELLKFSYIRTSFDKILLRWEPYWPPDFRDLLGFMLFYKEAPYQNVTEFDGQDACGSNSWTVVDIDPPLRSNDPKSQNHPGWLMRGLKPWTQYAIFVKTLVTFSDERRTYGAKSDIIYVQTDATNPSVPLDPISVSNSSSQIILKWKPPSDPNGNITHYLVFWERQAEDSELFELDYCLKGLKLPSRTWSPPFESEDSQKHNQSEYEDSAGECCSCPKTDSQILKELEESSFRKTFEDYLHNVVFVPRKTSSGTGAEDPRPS
Sequence of human IR (HIR) (P06213 763-1382 partner limits assumed): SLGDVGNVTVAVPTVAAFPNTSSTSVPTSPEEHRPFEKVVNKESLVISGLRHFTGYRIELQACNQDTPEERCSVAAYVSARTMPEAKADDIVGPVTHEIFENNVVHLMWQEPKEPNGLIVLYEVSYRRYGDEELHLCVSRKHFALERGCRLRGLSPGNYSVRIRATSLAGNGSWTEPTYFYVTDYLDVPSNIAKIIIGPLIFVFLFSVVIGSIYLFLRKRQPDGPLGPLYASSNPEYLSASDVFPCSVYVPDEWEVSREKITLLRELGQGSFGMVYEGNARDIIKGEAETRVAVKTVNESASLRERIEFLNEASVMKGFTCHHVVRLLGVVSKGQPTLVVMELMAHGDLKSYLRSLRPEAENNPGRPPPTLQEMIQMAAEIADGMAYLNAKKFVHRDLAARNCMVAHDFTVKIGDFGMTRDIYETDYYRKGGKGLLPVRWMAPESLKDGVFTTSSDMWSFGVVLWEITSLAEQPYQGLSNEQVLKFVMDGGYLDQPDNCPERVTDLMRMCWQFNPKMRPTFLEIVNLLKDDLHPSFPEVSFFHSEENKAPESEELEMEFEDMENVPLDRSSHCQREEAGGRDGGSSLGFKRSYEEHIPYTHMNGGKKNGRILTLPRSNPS

| Molecule | Kd (HIR) rel. to HI [%] |
| --- | --- |
| Ac-SLEHEW[Aib]QIQCEVWGRPCPSEP[Dip]YGWFHEQLGPP (cysteine pairing not given here) [compound 872] | 6 |
| Ac-SLEEEW[Aib]QIQCEVWGRGCPSESFYDWFERQL (cysteine pairing not given here) [compound 875] | 12 |
| Ac-SLE-Aib-EW-Aib-QIQCEVWGRGC-pox-FYGWFE-Aib-QLG [compound 806] | 3 |
| Ac-SLEEEWAQIQCEVWGRGCPK(ε-carboxyfluorescein)ESFYGWFERQLG [compound 871] | 4 |
| Ac-SLE-Aib-EW-Aib-QIQCEVWGRPCPSEP-Dip-YGWFHEQLGPP [compound 874] | 8 |
| SLEHEWAQIQCEVWGRGCPSEPFYGWFLAQLG [compound 799] | 4 |
| Ac-SLEEEWAQIQCEVWG[Orn]GCPSESFYGWFERQLG (cysteine pairing not given here) [compound 805] | 24 |
| SLEHEWAQIQCEVWGRGCPSEPFYGWFERQLG [compound 800] | 07 |
| Ac-SLEEEWAQIQCEVWGRGC-pox-FYGWFERQLG [compound 802] | 6 |

Target: insulin receptor on mouse adipocytes (mouse, UniProt P15208 28-1372)
Sequence (P15208 28-1372): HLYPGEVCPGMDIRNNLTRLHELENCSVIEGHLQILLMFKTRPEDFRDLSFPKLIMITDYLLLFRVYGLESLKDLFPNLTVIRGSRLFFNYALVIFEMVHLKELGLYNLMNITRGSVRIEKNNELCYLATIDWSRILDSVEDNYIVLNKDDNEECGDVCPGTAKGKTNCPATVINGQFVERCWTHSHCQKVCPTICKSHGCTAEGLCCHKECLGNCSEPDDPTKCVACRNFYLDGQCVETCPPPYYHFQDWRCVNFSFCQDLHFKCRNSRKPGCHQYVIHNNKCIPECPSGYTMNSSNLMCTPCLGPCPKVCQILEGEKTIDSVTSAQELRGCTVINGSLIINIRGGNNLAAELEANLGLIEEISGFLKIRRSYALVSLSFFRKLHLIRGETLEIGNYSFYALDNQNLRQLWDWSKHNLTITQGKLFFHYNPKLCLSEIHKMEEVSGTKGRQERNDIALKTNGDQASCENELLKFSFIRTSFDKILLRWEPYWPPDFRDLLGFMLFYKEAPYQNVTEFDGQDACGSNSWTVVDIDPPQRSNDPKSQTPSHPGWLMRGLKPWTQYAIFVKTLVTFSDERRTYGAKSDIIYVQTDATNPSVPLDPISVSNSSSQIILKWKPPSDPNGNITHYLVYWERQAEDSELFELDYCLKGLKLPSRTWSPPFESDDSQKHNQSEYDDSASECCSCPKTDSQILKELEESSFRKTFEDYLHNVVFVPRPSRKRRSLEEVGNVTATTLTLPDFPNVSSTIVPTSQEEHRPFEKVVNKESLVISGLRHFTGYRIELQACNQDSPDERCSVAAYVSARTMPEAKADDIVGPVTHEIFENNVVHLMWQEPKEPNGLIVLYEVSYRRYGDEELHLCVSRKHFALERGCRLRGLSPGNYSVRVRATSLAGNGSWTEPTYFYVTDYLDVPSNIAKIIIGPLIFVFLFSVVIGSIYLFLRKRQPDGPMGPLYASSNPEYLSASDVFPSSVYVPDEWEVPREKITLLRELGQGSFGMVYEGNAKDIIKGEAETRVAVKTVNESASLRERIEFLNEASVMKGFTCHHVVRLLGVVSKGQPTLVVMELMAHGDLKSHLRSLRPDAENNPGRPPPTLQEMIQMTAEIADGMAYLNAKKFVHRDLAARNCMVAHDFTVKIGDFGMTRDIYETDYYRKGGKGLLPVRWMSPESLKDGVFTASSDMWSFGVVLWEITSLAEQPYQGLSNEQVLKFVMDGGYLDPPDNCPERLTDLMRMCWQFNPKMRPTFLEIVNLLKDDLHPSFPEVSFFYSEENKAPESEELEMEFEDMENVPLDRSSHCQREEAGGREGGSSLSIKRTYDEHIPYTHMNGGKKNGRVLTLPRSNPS
Experiment: cell-based or functional assay
Conditions: not given

| Molecule | EC50 (FFC) [nM] | EC50 (FFC) rel. to HI [%] |
| --- | --- | --- |
| Ac-SLEEEWAQIQCEVWGRGCPSESFYDWFEAQLHA (cysteine pairing not given here) [634] | 0.083 | 66 |
| Ac-SLEEEWAQIQCELWGRGCPSESFYDWFERQL (cysteine pairing not given here) [643] | 0.097 | 57 |
| SLEEEWAQIEAEVWGRGAPPSESFYDWFERQLGY [649] | 14 | 0.4 |
| Ac-SLEEEWAQIQCEVWGRGCQRPEPFYDWFERQL (cysteine pairing not given here) [S642] | 0.14 | 39 |
| Ac-HLEEEWSEIQCELWGRGCPSEDFYDWFEAQLHA (cysteine pairing not given here) [620] | 69 | 1 |
| Ac-SLEEEWAQIECEVYGRGCPSESFYHWFERQL (cysteine pairing not given here) [S665] | 1.9 | 3.4 |
| Ac-SLEEEWAQIQCEVWGRGCPSGGSTFEDYLHNVVFVPRPS (cysteine pairing not given here) [658] | ~1000 |  |
| Ac-SLEEEWAQIECEVYGRGCPSEGFYNAIELLS (cysteine pairing not given here) [637] | 39 | 0.1 |
| SLEEHWAQVECEVYGRGCPSESFYDWFERQL [680] | 16 | 0.4 |
| SLEEHWHQVECEVYHRHCPSESFYDWFERQL [698] | 190 | 0.03 |
| SLEEHWHQVECEVYGRGCPSESFYDWFERQL [697] | 72 | 0.1 |
| SLEEEWAQVECEVYGRVCPSESFYDWFERQL [693] | 75 | 0.1 |
| SLEEEWAQVECEVYGRNCPSESFYDWFERQL [683] | 2.1 | 2.9 |
| SLEEEWAQVECEVYGRHCPSESFYDWFERQL [692] | 7.7 | 0.8 |
| SLEEEWGQVECEVYGRGCPSESFYDWFERQL [681] | 13 | 0.4 |
| SLEEEWAQVECEVYHRGCPSESFYDWFERQL [695] | 9.8 | 0.6 |
| SLEEEWAQVECEVYQRGCPSESFYDWFERQL [684] | 15 | 0.4 |
| SLEEVWAQVECEVYGRGCPSESFYDWFERQL [690] | 16 | 0.4 |

| Molecule | EC50 (FFC) [nM] | EC50 (FFC) rel. to HI [%] |
| --- | --- | --- |
| SLEEEWAQVECEVYGRFCPSESFYDWFERQL [694] | 26 | 0.3 |
| SLEEEWYQVECEVYGRGCPSESFYDWFERQL [691] | 25 | 0.3 |
| SLEEEWAQHECEVYGRGCPSESFYDWFERQL [688] | 680 |  |
| SLEEYWAQVECEVYGRGCPSESFYDWFERQL [689] | 15 | 0.4 |
| HLEEEWSEIQCELWGRGCPSEDFYDWFEAQLHA [617] | 3.9 | 1 |
| YEEESFYGWFERQLGEE [732] | > 2000 |  |
| Ac-SLEEEWAQIQAEVWGRGAPSESFYDWFERQL [672] | 25 | 0.3 |
| Ac-SLEEEWAQIQCEVWGRGCQRPEPFYDWFAEQLDD (cysteine pairing not given here) [655] | 0.63 | 8.7 |
| Ac-SLEEEWAQVECEVYGRGCPSESFYDWFERQL (cysteine pairing not given here) [699] | 4.3 | 1.5 |
| SLEEEWAQVECEVYGRCPSESFYDWFERQL [682] | 7.7 | 0.8 |
| Ac-SLEEEWAQIQCEVWGRGCPSESFYGWFQAQL (cysteine pairing not given here) [668] | 2.3 | 2.8 |
| HQLEEEWQAIQCELWGRGCPSEDFYDWFEAQLHA [616] | 1.5 | 4 |
| HELEEEWKRIECELWGRGCPSEDFYDWFEAQLHA [618] | 4.6 | 1 |
| GSLDESFYDWFERQLGKKY [670] | 850 |  |
| Ac-SLEHEWAQIHCEVYGRGCPSESFYHWFERQL (cysteine pairing not given here) [674] | 230 |  |
| Ac-SLEEEWAQIQCEVWGRGCPSEAFYDWFHEQLDD (cysteine pairing not given here) [662] | 2 | 3.3 |
| Ac-HGLEEEWAQIQCEVWGRGCPSESFYDWFEAQLHA (cysteine pairing not given here) [639] | 0.78 | 5 |
